Laboratory results as given in patent publication US20170267757A1.

Legend:
Assay in all cases: sandwich ELISA, antibody as capture 100 ng/well, CHO-K1 supernatant, anti-human Ig-HRP
[1] = molecular target: CD66c mutant (BI/BHI)-hFc (human)
[2] = molecular target: CD66c-HuIgFc recombinant antigen (human)
[3] = molecular target: CD66c mutant (HPK/HdIII/PstI/klenow)-hFc (human)
Chain of CD66c mutant (HPK/HdIII/PstI/klenow)-hFc (human) (chain, as listed by the source mutant limits assumed, form in doubt): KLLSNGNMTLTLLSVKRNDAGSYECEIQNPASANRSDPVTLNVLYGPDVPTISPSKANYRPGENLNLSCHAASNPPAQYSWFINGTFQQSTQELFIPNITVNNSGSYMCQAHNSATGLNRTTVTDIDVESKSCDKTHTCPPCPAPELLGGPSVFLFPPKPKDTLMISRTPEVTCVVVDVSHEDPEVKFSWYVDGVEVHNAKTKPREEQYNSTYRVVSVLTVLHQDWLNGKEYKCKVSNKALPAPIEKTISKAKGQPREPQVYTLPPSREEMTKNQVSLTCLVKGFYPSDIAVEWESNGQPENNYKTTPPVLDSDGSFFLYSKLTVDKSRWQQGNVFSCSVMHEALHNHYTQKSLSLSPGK

Chain of CD66c-HuIgFc recombinant antigen (human) (chain, as listed by the source limits assumed): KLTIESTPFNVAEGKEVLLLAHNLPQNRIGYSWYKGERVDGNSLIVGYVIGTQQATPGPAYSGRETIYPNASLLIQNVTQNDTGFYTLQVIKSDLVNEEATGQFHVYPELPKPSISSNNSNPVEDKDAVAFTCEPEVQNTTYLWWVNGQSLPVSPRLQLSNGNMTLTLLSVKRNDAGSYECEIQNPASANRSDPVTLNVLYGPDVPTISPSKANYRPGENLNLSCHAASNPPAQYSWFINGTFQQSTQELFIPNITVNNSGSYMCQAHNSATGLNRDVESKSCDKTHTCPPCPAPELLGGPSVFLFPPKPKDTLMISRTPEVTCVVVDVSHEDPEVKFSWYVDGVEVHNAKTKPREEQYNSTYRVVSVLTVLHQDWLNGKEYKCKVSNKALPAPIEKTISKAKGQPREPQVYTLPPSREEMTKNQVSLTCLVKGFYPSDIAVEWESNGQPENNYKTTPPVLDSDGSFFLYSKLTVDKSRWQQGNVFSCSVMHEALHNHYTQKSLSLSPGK
Chain of CD66c mutant (BI/BHI)-hFc (human) (chain, as listed by the source mutant limits assumed, form in doubt): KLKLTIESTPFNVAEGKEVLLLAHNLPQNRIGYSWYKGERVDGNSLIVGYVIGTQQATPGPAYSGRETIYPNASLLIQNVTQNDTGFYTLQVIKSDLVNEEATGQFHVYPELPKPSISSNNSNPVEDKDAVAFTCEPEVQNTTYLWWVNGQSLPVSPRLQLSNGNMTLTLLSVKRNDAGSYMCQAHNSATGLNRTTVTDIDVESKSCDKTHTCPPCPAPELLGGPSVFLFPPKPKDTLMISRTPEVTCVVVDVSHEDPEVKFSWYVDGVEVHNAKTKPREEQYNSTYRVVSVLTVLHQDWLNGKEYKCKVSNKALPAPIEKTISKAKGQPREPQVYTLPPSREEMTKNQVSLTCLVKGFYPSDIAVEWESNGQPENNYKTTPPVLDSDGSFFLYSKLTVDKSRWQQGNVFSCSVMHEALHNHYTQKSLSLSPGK

- absorbance at 450 nm (absorbance at 450 nm) [1]: 1.92
- absorbance at 450 nm (absorbance at 450 nm) [2]: 2.84
- absorbance at 450 nm (absorbance at 450 nm) [3]: 0.049
Substance: 9A6 anti-CD66c monoclonal antibody (Santa Cruz)
